The text below walks through data of patent publication US20240376222A1 (University of Texas, published 2024).

The target of assay [1] is T1, muTfR extracellular domain (ECD), His-tagged (mouse, UniProt Q62351 89-763).
T1 construct: extracellular domain; Bought protein (Sino Biological); also called muTfR-His; muTfR ECD
The assay can be described thus: BLI, biotinylated VEGFA on streptavidin sensors, no antibody, then muTfR ECD. As to the method: To characterize the bispecific antibodies a BLI-based sandwich capture assay. The bispecific antibodies were first captured onto sensors via VEGF165A. After equilibrium in blank buffer, the sensor-captured bispecific antibodies were then incubated with muTfR ECD. The VEGF-Trap/TfR bispecific antibodies were shown simultaneously binding to both VEGF165 and TfR. To further validate the antigen binding, we introduced another three control groups that missed one of the three binding partners (VEGFA, Ab, or TfR). […] Finally, the flat curves without TfR confirmed the observed binding signals in curves A and E were antibodies binding to TfR.
Streptavidin sensors (Fortebio) were used to capture biotinylated VEGFA proteins (Sino Biological). During all incubation steps, samples were kept at room temperature with 1000 rpm shaking. In the VEGFA loading step, 100 nM biotinylated VEGFA proteins were incubated with the sensors for the designated time. In the bispecific antibody interaction steps, 200 nM antibodies were used. In the muTfR incubation step, 100 nM muTfR-His (Sino Biological) were used. Between incubations, the sensors were dipped into blank kinetic buffers to allow the free dissociation of proteins.

Assay [2] concerns the target T1, muTfR extracellular domain (ECD), …. The assay can be described thus: competition ELISA on coated muTfR-His against 1 nM biotinylated Ab4, streptavidin-HRP. On the procedure:
High-binding ELISA plates (Corning) were coated with muTfR-His at 2 μg/mL overnight at 4° C. After blocking with 1% BSA PBS, individual antibodies (at designated concentrations) and 1 nM biotinylated TfR Ab4 in 1% BSA PBS were incubated with coated muTfR for 2 hours at room temperature. After washing with PBS+0.05% Tween-20, streptavidin-HRP (Jackson ImmunoResearch) was added at 1:5000 concentration and incubated for 1 hour at room temperature. After washing with PBS+0.05% Tween-20, TMB substrate (Thermo Fisher Scientific) was added and incubated for 5 min before being stopped by 1N H₂SO₄. OD values were read at 450 nm.

Assay [3] deals with T2, human TfR extracellular domain (ECD) (human, UniProt P02786 89-760).
T2 construct: extracellular domain; Bought protein; also called HuTfR; huTfR
The assay can be described thus: phage ELISA, scFv phage on coated TfR, anti-M13-HRP, single point. A general note: An ELISA detects its analyte on a solid surface through an enzyme-linked reagent.

T1 sequence (Q62351 89-763): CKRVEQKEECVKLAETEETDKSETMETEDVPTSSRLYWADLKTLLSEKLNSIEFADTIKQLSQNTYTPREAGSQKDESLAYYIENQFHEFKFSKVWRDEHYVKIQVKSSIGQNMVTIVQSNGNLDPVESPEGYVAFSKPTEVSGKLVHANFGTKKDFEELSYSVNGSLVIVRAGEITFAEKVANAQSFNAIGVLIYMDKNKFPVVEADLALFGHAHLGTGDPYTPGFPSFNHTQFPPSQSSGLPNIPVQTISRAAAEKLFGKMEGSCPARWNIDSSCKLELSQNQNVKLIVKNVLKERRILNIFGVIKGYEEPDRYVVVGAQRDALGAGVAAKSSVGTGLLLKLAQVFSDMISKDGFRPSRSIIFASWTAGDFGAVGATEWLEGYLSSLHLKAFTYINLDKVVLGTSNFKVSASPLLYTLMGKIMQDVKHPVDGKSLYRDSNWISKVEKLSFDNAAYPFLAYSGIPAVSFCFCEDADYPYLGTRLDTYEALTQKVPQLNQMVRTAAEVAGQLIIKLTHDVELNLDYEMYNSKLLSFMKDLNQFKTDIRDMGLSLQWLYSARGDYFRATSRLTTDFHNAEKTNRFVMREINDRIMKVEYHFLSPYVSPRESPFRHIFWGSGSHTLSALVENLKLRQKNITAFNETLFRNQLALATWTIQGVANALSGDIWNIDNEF

B1: VEGFA (VEGF165) (ligand, human, UniProt P15692-4 27-191, looked up)
chain: APMAEGGGQNHHEVVKFMDVYQRSYCHPIETLVDIFQEYPDEIEYIFKPSCVPLMRCGGCCNDEGLECVPTEESNITMQIMRIKPHQGQHIGEMSFLQHNKCECRPKKDRARQENPCGPCSERRKHLFVQDPQTCKCSCKNTDSRCKARQLELNERTCRCDKPRR
notes: also called VEGF165A; human VEGFA
With B1, the binding result in assay [1] was “no binding (tested: 100 nM muTfR-His)”.

B2: VEGF-Trap (Fc fusion, UniProt P17948 129-230, looked up)
chain: SDTGRPFVEMYSEIPEIIHMTEGRELVIPCRVTSPNITVTLKKFPLDTLIPDGKRIIWDSRKGFIISNATYKEIGLLTCEATVNGHLYKTNYLTHRQTNTIIDVVLSPSHGIELSVGEKLVLNCTARTELNVGIDFNWEYPSSKHQHKKLVNRDLKTQSGSEMKKFLSTLTIDGVTRSDQGLYTCAASSGLMTKKNSTFVRVHEK
notes: domain: D2 domain;domain: D3 domain; Designed on aflibercept; also called VEGF-Trap positive control; not shown: human Fc fragment
Turning to B2, the binding result in assay [2] is “no binding”.

B3: 3H8 (antibody, V domains shown)
VH: QVQLVQSGAEVKKPGESLRISCKGSGYSFTSYWISWVRQMPGKGLEWMGRIDPSDSYTNYSPSFQGHVTISADKSISTAYLQWSSLKASDTAMYYCARHPPRSTRGDYGMDVWGQGTMVTVSS
VL: QAVVTQPPSVSGTPGQRVTISCSGSNSNIGSYIVNWYQQLPGTAPKLLIWGNDRRPSGVPDRVSASKSGTSASLAISGLQSEDEGDYYCAAWDNILNNYVFGPGTQLTVL
notes: Human IgG1, converted from a phage scFv clone
Turning to B3, the binding result in assay [3] was “binds”.

B4: 1C8 (antibody, V domains shown)
VH: QVQLVQSGAEVKKPGSSMKVSCKASGGTFSSYAISWVRQAPGQGLEWMGGIIPIFGTAKYAQKFQGRVTITADESTTTAYMELSSLSSEDTAVYYCARSLGWYYAFDIWGQGTMVTVSS
VL: DIVMTQSPSTLSASVGDRVTITCRASQNINNWLAWYQQKPGKAPKLLIYKASTAESGVPSRFSGSGFGTEFTLTISSLQPDDFASYYCQQYKNYPYSNLYTFGQGTKVDIK
notes: as for B3
Take B4: the binding result in assay [3] is “binds”.
